# Laboratory results taken from paper PMC4914113, “Another look at the mechanism involving trimeric dUTPases in Staphylococcus aureus pathogenicity island induction involves novel players in the party” (Nucleic Acids Research, 2016).
# pKd: −log10 of the molar value.
# Key:
# [1] = target: Dut80α D81A D110C S168C (Staphylococcus aureus phage 80α); assay: BLI; as a1, buffer STL supplemented with 0.5 mM dUPNPP (baselines and dissociation without nucleotide); 1:1 model
# [2] = target: Dut80α^D81A (Staphylococcus aureus phage 80α); assay: as above
# [3] = target: Dut80α^F165A (Staphylococcus aureus phage 80α); assay: as above
# [4] = target: Dut80α^G164S (Staphylococcus aureus phage 80α); assay: as above
# [5] = target: Dut80α^WT, wild-type dUTPase of phage 80α (Staphylococcus aureus phage 80α); assay: as above
# [6] = target: Dut80α^Y84I (Staphylococcus aureus phage 80α); assay: as above
# [7] = target: Dut80α^ΔV, Dut80α motif V deletion mutant (Staphylococcus aureus phage 80α); assay: as above
# [8] = target: Dut80α^ΔVI, Dut80α lacking motif VI (Staphylococcus aureus phage 80α); assay: as above
# [9] = target: Dutϕ11^(ΔVI F164A) (Staphylococcus aureus phage ϕ11); assay: as above
# [10] = target: Dutϕ11^WT, wild-type dUTPase of phage ϕ11 (Staphylococcus aureus phage ϕ11); assay: as above
# [11] = target: Dutϕ11^ΔV, Dutϕ11 motif V deletion mutant (Staphylococcus aureus phage ϕ11); assay: as above
# [12] = target: Dutϕ11^ΔV-ΔVI (Staphylococcus aureus phage ϕ11); assay: as above
# [13] = target: Dutϕ11^ΔVI, Dutϕ11 lacking motif VI (Staphylococcus aureus phage ϕ11); assay: as above
# [14] = target: Dut80α^F165A (Staphylococcus aureus phage 80α); assay: BLI; BLItz; His-tagged Dut immobilised at 1 μM on Ni-NTA biosensors, Stl in solution (at least five dilutions, 4 to 0.062 μM); buffer STL (400 mM NaCl, 75 mM HEPES pH 7.5, 5 mM MgCl2, 2 mM DTT); no nucleotide; 1:1 model
# [15] = target: Dut80α^WT, wild-type dUTPase of phage 80α (Staphylococcus aureus phage 80α); assay: as above
# [16] = target: Dutϕ11^IV-80α (Staphylococcus aureus phage ϕ11); assay: as above
# [17] = target: Dutϕ11^WT, wild-type dUTPase of phage ϕ11 (Staphylococcus aureus phage ϕ11); assay: as above
# [18] = target: Dutϕ11^ΔV, Dutϕ11 motif V deletion mutant (Staphylococcus aureus phage ϕ11); assay: as above
# [19] = target: Dutϕ11^ΔVI, Dutϕ11 lacking motif VI (Staphylococcus aureus phage ϕ11); assay: as above
substance,measurement,setting,value
Stl repressor from SaPIbov1 (natural protein),pKd,[1],6.72
same,koff,[1],0.005 s⁻¹
same,kon,[1],26000 M⁻¹ s⁻¹
same,pKd,[2],< 6.00
same,pKd,[3],< 6.00
same,pKd,[4],< 6.00
same,pKd,[5],6.33
same,koff,[5],0.0014 s⁻¹
same,kon,[5],3000 M⁻¹ s⁻¹
same,pKd,[6],< 6.00
same,pKd,[7],6.28
same,koff,[7],0.0042 s⁻¹
same,kon,[7],8000 M⁻¹ s⁻¹
same,pKd,[8],< 6.00
same,pKd,[9],6.42
same,koff,[9],0.0031 s⁻¹
same,kon,[9],8200 M⁻¹ s⁻¹
same,pKd,[10],6.52
same,koff,[10],0.0006 s⁻¹
same,kon,[10],2000 M⁻¹ s⁻¹
same,pKd,[11],8.42
same,koff,[11],5e-05 s⁻¹
same,kon,[11],13000 M⁻¹ s⁻¹
same,pKd,[12],6.70
same,koff,[12],0.0019 s⁻¹
same,kon,[12],9500 M⁻¹ s⁻¹
same,pKd,[13],7.90
same,koff,[13],0.00014 s⁻¹
same,kon,[13],11000 M⁻¹ s⁻¹
same,pKd,[14],6.24
same,koff,[14],0.0157 s⁻¹
same,kon,[14],27000 M⁻¹ s⁻¹
same,pKd,[15],7.40
same,koff,[15],0.001 s⁻¹
same,kon,[15],25000 M⁻¹ s⁻¹
same,pKd,[16],8.48
same,koff,[16],0.00025 s⁻¹
same,kon,[16],75000 M⁻¹ s⁻¹
same,pKd,[17],8.74
same,koff,[17],9.2e-05 s⁻¹
same,kon,[17],50000 M⁻¹ s⁻¹
same,pKd,[18],8.85
same,koff,[18],4e-05 s⁻¹
same,kon,[18],28000 M⁻¹ s⁻¹
same,pKd,[19],7.94
same,koff,[19],0.00024 s⁻¹
same,kon,[19],21000 M⁻¹ s⁻¹
